Substitutions are numbered along the chain they refer to.
B1: GPIbαN-Long WT (domain or fragment)
chain: HPHPICEVSKVASHLEVNCDKRNLTALPPDLPKDTTILHLSENLLYTFSLATLMPYTRLTQLNLDRCELTKLQVDGTLPVLGTLDLSHNQLQSLPLLGQTLPALTVLDVSFNRLTSLPLGALRGLGELQELYLKGNELKTLPPGLLTPTPKLEKLSLANNNLTELPAGLLNGLENLDTLLLQENSLYTIPKGFFGSHLLPFAFLHGNPWLCNCEILYFRRWLQDNAENVYVWKQGVDVKAMTSNVASVQCDNSDKFPVYKYPGKGCPTLGDEGDTDLYDYYPEEDTEGDK
modifications: sulfotyrosine at 276, 278, 279 (post translational sulfation that normally occurs at these positions)
B2: GPIbαN-Long 3Y/F (domain or fragment)
chain: B1 chain with Y278F, Y280F, Y281F
modifications: no Tyr sulfation at mature 276, 278, 279 (Tyr to Phe). Mature residue 1 = precursor 17 with no residue 0, so -2 = precursor 15. Disulfide-linked dimer through terminal Cys of the C-terminal …
B3: anfibatide (natural protein)
chain 1: DVDCLPGWSAYDQSCYRVFKLLKTWDDAEKFCTERPKGGHLVSIESAGERDFVAQLVSENKQTDNVWLGLKIQSKGQQCSTEWTDGSSVSYENFSEYQSKKCFVLEKNTGFRTWLNLNCGSEYAFVCKSPP
chain 2: GFCCPLRWSSYEGHCYLVVKEKKTWDDAEKFCTEQRKGGHLVSVHSREEADFLVHLAYPILDLSLIWMGLSNMWNDCKREWSDGTKLDFKAWAKTSDCLIGKTDGDNQWLNMDCSKKHYFVCKFKL
notes: anfibatide (agkisacucetin) alpha-subunit, snaclec of Deinagkistrodon acutus venom; disulfide-linked to the beta-subunit; anfibatide (agkisacucetin) beta-subunit, snaclec of Deinagkistrodon acutus venom; disulfide-linked to the alpha-subunit; Disulfide-linked alpha-beta heterodimer; MALDI-TOF single peak at m/z 29,799.7; also called agkisacucetin

Tests used:
[1] = target: GPIbα (Homo sapiens) (UniProt P07359); conditions: cited from earlier work
[2] = target: B3; assay: SPR; GPIbαN-Long captured by immobilised anti-SV40 mAb LJ-3A2 on an HC200M chip; anfibatide injected at increasing concentrations, 75 μL/min for 3 min; Biacore 3000; 135 mM NaCl, 20 mM HEPES pH 7.4, 0.005% Tween 20; steady-state mass ratios fit to a one-site model; conditions: both partners purified
[3] = target: T1, GPIbα on human washed platelets (human (endogenous in platelets), UniProt P07359 17-652); assay: flow cytometry on cells; competition on human washed platelets (2 x 10^7/mL, modified Tyrode's buffer pH 7.4, room temperature, 30 min); ligand: FITC-conjugated mAb LJ-Ib10 at 10 nM; anfibatide 0-200 nM added 5 min before; Ki by Cheng-Prusoff; conditions: one partner purified
T1 construct: human platelet glycoprotein Ibα, endogenous on the platelet surface; also called platelet GPIbα; glycoprotein (GP) Ibα; source: endogenous, washed platelets of healthy human volunteers

[4] = target: T1, GPIbα on human washed platelets; assay: flow cytometry on cells; competition on human washed platelets (2 x 10^7/mL, modified Tyrode's buffer pH 7.4, room temperature, 30 min); ligand: BP-αFIIa at 80 nM with streptavidin-PE; anfibatide 0-200 nM added 5 min before; Ki by Cheng-Prusoff; conditions: one partner purified
[5] = target: T1, GPIbα on human washed platelets; assay: flow cytometry on cells; competition on human washed platelets (2 x 10^7/mL, modified Tyrode's buffer pH 7.4, room temperature, 30 min); ligand: VWF A1 domain at 1.5 nM with FITC anti-VWF mAb; anfibatide 0-200 nM added 5 min before; Ki by Cheng-Prusoff; conditions: one partner purified

VWF (from UniProt P04275)
Kd [1]: 1.5 nM

B1
Kd [2]: 21 ± 0.9 nM

B2
Kd [2]: 90.5 ± 9.2 nM

B3
Ki [3]: 3.4 ± 1.1 nM
Ki [4]: 1.4 ± 0.1 nM
Ki [5]: 1.2 ± 0.5 nM

Source: PMC8175443, “In vitro assessment and phase I randomized clinical trial of anfibatide a snake venom derived anti-thrombotic agent targeting human platelet GPIbα” (Scientific Reports, 2021)
